The record followed here is a protein production outcome set (Wang et al. 2014).
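Also: failed if final PepcDB status was selected cloned or expressed and not failed if soluble or beyond.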

The data set in a line: label from the status in PepcDB records.
“MEEENNLNSKDTQNTFLKGSAWMTFGSIASRILGALYIIPWYAWMGQYGNIANALTARSYNIYTIFILISTAGIPGAIAKQVAKYNALNEYGIGRRLFHKGLILMAILGVVSAAIMYFASPLLASNGSQSDPRQIAVMRSLSYAILIIPILSIMRGYFQGYADMMPSAMSQFVEQFARVVWMLLTAFVIMQVQHGSYVHAVIQSNLAAAVGAAFGIGLLVWFLFSRRKQLDYLVANSNNRLRVSTTELFAEIIEQAIPFIIIDSGITLFSLVDQYTFHPMIAGLVHASSDAIEDWYALFGLNANKLIMIIVSLASAMAVTAIPLLSAAHTRGDYKSISRQIANTMDLFLFVMIPAAFGMAAISRPIYTVFYGPDQLGSNVLYLSAFTAISLGLFTVLMAILQGLSENGLAIKYLVLGLILKGILQYPMIFLFKIYGPLVATNLGLLVIVLLSLKHLEVQYNFNLNRTSRRLVGITAFSIGMFIIVKLVEMGLGKFLSPDRRISALILVIVAVSIGIIFYGFAALKTDLAQKIMGSKIESILVRLRIHD”: the protein production result was “failed”.

With “MGHHHHHHENLYFQSHERLSEKKIKNLLTSKQQRQQYEIKQRSMLRHLAELRRHSRFRRLCTKPASSSMPASTSSVDRRTTRRSTSQTSLSPSNSSGYGSVFGCEEHDVDKIPSLNGFAKLKRRRSSCVGAPTPNSKRSKNNMGVIAKRPPKGEYVVERIECVEMD”, the protein production result is listed as “failed”.

Regarding “MMMLPEACIANILAFTSPADAFSSSEVSSVFRLAGDSDFVWEKFLPSDYKSLISQSTDHHWNISSKKEIYRCLCDSLLIDNARKLFKINKFSGKISYVLSARDISITHSDHASYWSWSNVSDSRFSESAELIITDRLEIEGKIQTRVLSANTRYGAYLIVKVTKGAYGLDLVPAETSIKSKNGQISKSATYLCCLDEKKQQMKRLFYGNREERMAMTVEAVGGDGKRREPKCRDDGWMEIELGEFETREGEDDEVNMTLTEVKGYQLKGGILIDGIEVRPKT”, the protein production entry was “failed”.

In the case of “AIATYPTNLEIIGGQGGSSFSFTGENNGASLEKIWVWVGGWQIKAVRAWLSDGRDETFGVPSGSHQEYVFTPGECFTSLSLWGNGAGTRLGAIKFKTNKGGEFFAHMTSWGLKTEYPMDVGSGYCLGIVGRGGSDIDCMGFMFLNAVQSTVLTNVNYPTINQLIPKVATEEIKSVSFENKTSVKQEQKVETSKKVIKTSSWSMTKSFSSTFSVEVSAGIPEIAEVSTGFSISFGVESTHSLEQTDEKNETLTTTVEVPPKKKVDVHITIGRASFDLPYTGTVKITCKNGSVLQYETKGQYKGVAYTDIKVNTVEKDL”, the protein production result is “not failed”.

Regarding “GMKTSGKQDEAWIMSRLIKQLTDMGFPREPAEEALKSNNMNLDQAMSALLEKKVDVDKRGLGVTDHNGMAAK”, the protein production result is recorded as “not failed”.

As to “HDLALSGNAYKVRLFLSLIGREATLRPVDFLNREHKTQAFLRMNPRGQIPVLEDGELQLGDSHAILVYLARRHADPVWYPLDPVSQGRIAYWLSYSANEVQNGPASARLITRFNLPLDREQTHQRGLEVLRLVDRHLAEHRWLAQGEQPSIADVALYPYLALAPEGGLALDHYPALNAWIARIRALPGYIPMPGL”, the protein production entry is recorded as “not failed”.

On to “MTELEDPSRDRLKHHFAQRVIHQARQILETWQRLQKAQWSVADMAELKEATLRLMRFAERFEQAEHVALAHEINQSLDAVDANRGRLNSHVITELNRLMQRLSRTGLRHGDRLEQTSLPPLRKPVYVVLQDHERAERLAKQLEFFGLSALSLHSVADFQRAMAQRHPAAIVMDVDFSGPGMGLELASQAQEGLEQKLPLLFFSVHETDTPTRLAAVRAGGEEFLTGALEASSLLEKIEVLTCVAQYEPYKVLIIDDSRAQAMHTERVLNAAGIVTRVLIDPIQAMSELADFQPDLIILDMYMPGCTGTELAKVIRHNDRYVSVPIIYLSAEDDQDKQLDAMSEGGDDFLTKPIKPRHLITTVRNRAARARNLKSRMVRDSLTGLYNHTHILQLLEDCSFRSRREGKPLCFAMLDIDHFKRVNDSHGHPMGDRVIKSLALFLKQRLRKTDFIGRYGGEEFAIVMPDTDIHNAHKVLDEIRHRFAEIHYPAQPADLFCTFSAGVVCLGADDDSLSLASQADNALYRAKHAGRNQVHSALVQAPYHIVLAEIEA”, for which the protein production result is “failed”.

As to “MTIYTLSHGSLKLDVSDQGGVIEGFWRDTTPLLRPGKKSGVATDASCFPLVPFANRVSGNRFVWQGREYQLQPNVEWDAHYLHGDGWLGEWQCVSHSDDSLCLVYEHRSGVYHYRVSQAFHLTADTLTVTLSVTNQGAETLPFGTGWHPYFPLSPQTRIQAQASGYWLEREQWLAGEFCEQLPQELDFNQPAPLPRQWVNNGFAGWNGQARIEQPQEGYAIIMETTPPAPCYFIFVSDPAFDKGYAFDFFCLEPMSHAPDDHHRPEGGDLIALAPGESTTSEMSLRVEWL”, the protein production result is recorded as “not failed”.

On to “MSRFHWLWPWRSSTSLRVTTVLRLGADQPAIVAAARASQACTRSPRTTRDAMAMHTNGSVFAGWDGSVIQAQQLQHQLAQRVLLHDEVSATPQLLAGFDVGFEDDGQTTRAAAVLLDAHTLLPLETHVARAPTSMPYVPGLLSFRELPALLQALARLSRTPDLVFIDGQGIAHPRRLGIAAHFGVVTGLPCIGIAKQRLAGSFAEPGPERGDHTPILLGGAQIGWALRSKPRCNPLIVSPGHCVSMQGALGWTLRTLRSYRLPEPTRLADRLASRRGKMPALAADTPLLF”, for which the protein production result is given as “failed”.

For the sequence “MPTVFIFLTAVYAGLGAFAWHCQQQGRGRDYPWKTELPVLGAALTVHGAALLMPVIQDKIIIMGFGYSGSLIVWMMLFIYFAGSFFYPLRGVQLLLYPCAALMLLSGLVFPGKFSGYEITDFPFMLHIGTSLLAYGLFGIATLLSVLSLLLHRSLHRRNFSKLAGFLPSLLSLEKLMFQAMWAGFILLTYSVVSGTFFAEAVFGKPMTFTHKTVFGILSWLIYGGLLLKHSMTAWRGKKAAVWTIIGFVSLMIAYMGSKFVLEIILKR”, the protein production entry is “failed”.

Consider “MATPVVTKTAWKLQEIVAHASNVSSLVLGKASGRLLATGGDDCRVNLWSINKPNCIMSLTGHTSPVESVRLNTPEELIVAGSQSGSIRVWDLEAAKILRTLMGHKANICSLDFHPYGEFVASGSQDTNIKLWDIRRKGCVFRYRGHSQAVRCLRFSPDGKWLASAADDHTVKLWDLTAGKMMSEFPGHTGPVNVVEFHPNEYLLASGSSDRTIRFWDLEKFQVVSCIEGEPGPVRSVLFNPDGCCLYSGCQDSLRVYGWEPERCFDVVLVNWGKVADLAICNDQLIGVAFSQSNVSSYVVDLTRVTRTGTVTQDPVQASQPQTQQTPNPGVSLRRIYERPSTTCSKPQRVKHNSESERRSPSSEDDKDERESRAEIQNAEDYNEIFQPKNSISRTPPRRSEPFPAPPEDDIATAKEASKPSPAMDVQLPVPSQEVPARPSVMTSTPAPKGEPVIIPATRNEPIGLKASDFLPAVKVPQQAELVDEDAMSQIRKGHDTMCVVLTSRHKNLDTVRAVWTTGDIKTSVDSAVAINDLSVVVDLLNIVNQKASLWKLDLCTTVLPQIEKLLQSKYESYVQTGCTSLKLILQRFLPLITDILAAPPSVGVDISREERLHKCRLCFKQLKSISGLVKSRSGLSGRHGSAFRELHLLMASLD”, for which the protein production result is reported as “failed”.

Consider “MSKDSNKIIEQSREIGISIIMPLYNVEEVILETLESIHEQTFDSYEVLLIDDGSTDKTIEIVTEYIKDKPRFKLYTQPNGGPASARNHGLRLAIGMYICFVDSDDILPNYSLQLMYDGAISTGAKLITGATKRFNSEGEWFIPMHIQYNIAKPGMKTLLKNPELFYSIGPCAKLYHHSLIDGVFFPENIRYGEDQPFVLHALLQAKDIYTVEKVVYYYRLRDGESQSLTQSVDKDPIRILKSVFQIFDYGEEELKKNNTDYEVALKYYQRVSSVELWGALRAAIESKKSENQKIAFTMTLDWLKTKSDDFLNIIPSFRYFLLFSSIERVRYITKDNKENYRNLIGYLWSRQGEEAKIAFRKTYPIPMKAALQIIENNNWRDARKISFKFIVRRKFKAPILIRKISRGIIFRIATLMPRKKNQVILATERSTTLEGNLLAIYDYMFYNNMPQKVYVFLRKNRNWFEMFQLYYTLGRTKTIVLDDYYNKIYGLKFNKNTHVVQSWHATGAFKKFGFSALEGTDANTEEFETRAHSPYTDVLVSSEGIIPEYMEAFRKQANQIKPIGVPRTDVFFDDEYVNYTKEKYMKMYPQLRDKKILLYAPTFRGGPNERFNYSVVLDIAALKKELGDTHILILKFHPVIKNVSFNVEEDDPFILNLTLNNDINDLMLFSDALITDYSSVIFEFSLMNKPIYFFAYDIDDYLDERGFYFDYKATIPGEVFRDTPSLIEAVKSGLYNYDELEIFKKKFVGSLDGNSTKRFVETYIGKANEKVKDILEHHHHHH”, for which the protein production entry was “not failed”.
